In article PMC2911679 (Biochemical Journal, 2010) one finds Kd data, which are given here for five molecules.

The target of assay [1] is biotinylated Impβ1 (GST-fusion protein, biotinylated with sulfo-NHS-biotin) (UniProt P70168 1-876, biotin (sulfo-NHS-biotin reagent; sites not stated)). In words: AlphaScreen or HTRF. For orientation: In Alpha technology, singlet oxygen from a donor bead excites a nearby acceptor bead.
In assay [2] the target is biotin-labelled calmodulin (CaM) (UniProt P0DP23 1-149, biotin (site not stated)). In words: AlphaScreen or HTRF.

The Kd is the free concentration of one partner at which half of the binding sites on the other are occupied at equilibrium, for simple one-to-one binding.

Chain of biotinylated Impβ1 (GST-fusion protein, biotinylated with sulfo-NHS-biotin) (P70168 whole entry, the tested form may be a part): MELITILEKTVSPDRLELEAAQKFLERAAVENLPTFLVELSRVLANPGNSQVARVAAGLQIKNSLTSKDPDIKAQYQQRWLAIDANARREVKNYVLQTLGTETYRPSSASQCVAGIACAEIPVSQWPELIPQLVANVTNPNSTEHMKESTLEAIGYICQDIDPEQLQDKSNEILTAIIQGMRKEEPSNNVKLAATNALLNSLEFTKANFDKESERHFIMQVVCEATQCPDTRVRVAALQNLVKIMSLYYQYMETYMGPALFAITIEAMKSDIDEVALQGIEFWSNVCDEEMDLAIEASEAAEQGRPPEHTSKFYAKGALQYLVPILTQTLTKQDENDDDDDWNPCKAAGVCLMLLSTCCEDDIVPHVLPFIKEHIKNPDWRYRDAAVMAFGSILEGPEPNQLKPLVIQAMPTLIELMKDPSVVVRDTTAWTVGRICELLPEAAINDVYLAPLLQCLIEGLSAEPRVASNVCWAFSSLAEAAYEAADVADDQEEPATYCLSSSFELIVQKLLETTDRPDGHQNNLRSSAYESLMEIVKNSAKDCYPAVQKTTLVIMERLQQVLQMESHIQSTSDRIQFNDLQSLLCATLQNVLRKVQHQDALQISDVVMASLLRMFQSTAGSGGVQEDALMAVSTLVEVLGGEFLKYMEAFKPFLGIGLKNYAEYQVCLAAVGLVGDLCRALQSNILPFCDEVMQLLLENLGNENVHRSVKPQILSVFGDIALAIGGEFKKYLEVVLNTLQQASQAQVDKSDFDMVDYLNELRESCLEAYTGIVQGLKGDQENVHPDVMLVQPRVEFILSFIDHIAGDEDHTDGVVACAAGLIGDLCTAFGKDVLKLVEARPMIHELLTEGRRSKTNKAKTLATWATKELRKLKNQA

B1: His6-tagged GFP–SRY-HMG F67V (SRY residues 55–141) (domain or fragment)
chain: not shown
In turn, B1 had a Kd in assay [1] of 1.09 nM.

B2: His6-tagged GFP–SRY-HMG, wild type (SRY residues 55–141) (domain or fragment)
chain: not shown
Turning to B2, the Kd in assay [2] was found to be 0.43 nM; in assay [1], 0.94 nM.

B3: His6-tagged GFP–SRY-HMG M64T (SRY residues 55–141) (domain or fragment)
chain: not shown
In assay [1], B3 returned a dissociation constant (Kd) of 1.42 nM. That is a single-digit nanomolar value.

B4: His6-tagged GFP–SRY-HMG R76P (SRY residues 55–141) (domain or fragment)
chain: not shown
In assay [1], B4 had a Kd of 0.89 nM. Against the preceding molecule, the Kd is about 1.6-fold lower.

B5: His6-tagged GFP–SRY-HMG Y127C (SRY residues 55–141) (domain or fragment)
chain: not shown
In the case of B5, the results for the dissociation constant (Kd) in assay [2] and in assay [1] were 0.62 nM and 3.6 nM, respectively.
